# Patent publication US20240166767A1 (SCIRHOM, published 2024)
# T1: dog iRhom1 full length wild type, T7-tagged (dog, UniProt A0A8I3MHT7 11-866)
# T1 construct: whole, on cells; also called Dog-iR1-FL-WT-T7; expressed by MEF-DKO-Dog-iR1-FL-WT-T7 cells
# T1 sequence: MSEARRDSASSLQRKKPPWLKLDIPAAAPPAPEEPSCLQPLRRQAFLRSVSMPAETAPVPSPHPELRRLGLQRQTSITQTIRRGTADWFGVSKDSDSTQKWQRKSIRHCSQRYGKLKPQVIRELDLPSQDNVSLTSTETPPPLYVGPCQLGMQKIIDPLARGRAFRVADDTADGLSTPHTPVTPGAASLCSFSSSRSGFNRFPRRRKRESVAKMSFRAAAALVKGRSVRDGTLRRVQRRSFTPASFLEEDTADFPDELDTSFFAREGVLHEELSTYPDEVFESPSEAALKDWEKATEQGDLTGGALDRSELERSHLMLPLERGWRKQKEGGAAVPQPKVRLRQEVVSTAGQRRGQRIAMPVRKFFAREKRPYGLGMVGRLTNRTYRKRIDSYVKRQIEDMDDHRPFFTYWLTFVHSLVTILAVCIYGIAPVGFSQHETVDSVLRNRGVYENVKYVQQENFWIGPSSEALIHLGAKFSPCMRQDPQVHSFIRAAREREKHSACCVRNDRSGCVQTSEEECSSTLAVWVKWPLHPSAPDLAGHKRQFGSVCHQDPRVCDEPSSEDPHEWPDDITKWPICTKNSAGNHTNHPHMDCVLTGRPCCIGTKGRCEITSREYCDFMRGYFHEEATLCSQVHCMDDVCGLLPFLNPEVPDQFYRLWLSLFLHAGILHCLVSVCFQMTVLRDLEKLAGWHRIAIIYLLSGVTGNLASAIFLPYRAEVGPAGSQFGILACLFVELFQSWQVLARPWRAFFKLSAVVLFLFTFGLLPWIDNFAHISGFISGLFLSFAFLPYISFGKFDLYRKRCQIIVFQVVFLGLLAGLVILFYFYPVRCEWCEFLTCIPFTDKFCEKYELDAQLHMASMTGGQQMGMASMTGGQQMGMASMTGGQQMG
# Target: T1, dog iRhom1 full length wild type, …
# Experiment: FACS on MEF-DKO-Dog-iR1-FL-WT-T7 cells
# Description: In brief, immortalized MEF-DKO-EV control cells, MEF-DKO-rhesus-iR2-FL-WT-T7 cells, MEF-DKO-cyno-iR2-FL-WT-T7 cells, MEF-DKO-dog-iR2-FL-WT-T7 cells and MEF-DKO-rabbit-iR2-FL-WT-T7 cells, as well as their respective iRhom1 counterparts, were harvested with 10 mM EDTA in PBS, washed and resuspended in FACS buffer (PBS, 3% FBS, 0.05% sodium azide), and seeded in Nunc U-bottom 96-well plates (Thermo Fisher Scientific, USA) at approximately 3×10⁵ cells per well. To pellet cells and remove supernatants, the plates were centrifuged at 1,500 rpm and 4° C. for 3 minutes. For primary staining, cells were resuspended in 100 μl per well of either FACS buffer alone (controls), mouse monoclonal anti-T7 IgG (Merck Millipore, USA) at 3 μg/ml FACS buffer or the antibodies of the invention also at 3 μg/ml FACS buffer and incubated on ice for 1 hour. Afterwards, plates were centrifuged at 1,500 rpm and 4° C. for 3 minutes and washed twice with 200 μl per well of FACS buffer. For secondary staining of previous anti T7 staining, cells were spun down and resuspended in 100 μl per well of PE-conjugated goat anti-mouse IgG F(ab′)2 detection fragment (Dianova, Germany) diluted 1:100 in FACS buffer. For secondary staining of previous staining with humanized antibodies of invention, cells were spun down and resuspended in 100 μl per well of PE-conjugated goat anti-human IgG F(ab′)2 detection fragment (Dianova, Germany) diluted 1:100 in FACS buffer. Protected from light, the cell suspensions were incubated on ice for 1 hour. Plates were then centrifuged at 1,500 rpm and 4° C. for 3 minutes and washed three times with 200 μl per well of FACS buffer. Finally, cells were resuspended in 150 μl per well of FACS buffer and analyzed using a BD Accuri™ C6 Plus flow cytometer (Becton Dickinson, Germany).
row,Binder,binding result
1,"humanized antibody 42-B-04 (antibody, V domains shown, Tested as whole humanized antibody produced in CHO cells and detected with anti-human IgG; the general methods speak of human IgG1/Kappa; also called clone 42-B-04) VH: QVTLRESGPALVKPTQTLTLTCTFSGFSLSTFGRGVGWIRQPPGKALEWLAHIWWDDEKYYNSALKSRLTISKDTSKNQVVLTITNMDPVDTATYYCARIQNYGSNYWYFDVWGQGTLVTVSS VL: AIQLTQSPSSLSASVGDRVTITCRASSRISYMFWYQQKPGKAPKVLIYDTSNLASGVPSRFSGSGSGTDYTLTISSLQPEDFATYYCQQWNAYPLTFGQGTKLEIK",no binding (tested: 3 µg/ml)
2,"humanized antibody 42-B-02 (antibody, V domains shown, Tested as whole humanized antibody from transient expression of heavy chain/kappa light chain pairs in CHO cells, detected with anti-human IgG; the general methods speak of human IgG1/Kappa; also called clone 42-B-02) VH: QVTLRESGPALVKPTQTLTLTCTFSGFSLSTFGRGVGWIRQPPGKALEWLAHIWWDDEKYYNSALKSRLTISKDTSKNQVVLTITNMDPVDTATYYCARIQNYGSNYWYFDVWGQGTLVTVSS VL: AIQLTQSPSSLSASVGDRVTITCRASSRISYMFWYQQKPGKAPKVLIYDTSNLASGVPSRFSGSGSGTDYTLTISSLQPEDFATYYCQQWNSYPLTFGQGTKLEIK",no binding (tested: 3 µg/ml)
3,"humanized antibody 23-B-04 (antibody, V domains shown, Tested as whole humanized antibody produced in CHO cells and detected with anti-human IgG; the general methods speak of human IgG1/Kappa; also called clone 23-B-04) VH: QVTLRESGPALVKPTQTLTLTCTFSGFSLSTFGMGVGWIRQPPGKALEWLAHIWWDDEKYYNSALKSRLTISKDTSKNQVVLTITNMDPVDTATYYCARISNYGSNYWYFNVWGQGTLVTVSS VL: AIQLTQSPSSLSASVGDRVTITCRASSSVSYMYWYQQKPGKAPKVLIYDTSNLASGVPSRFSGSGSGTDYTLTISSLQPEDFATYYCQQWNAYPLTFGQGTKLEIK",no binding (tested: 3 µg/ml)
4,"humanized antibody 16-B-07 (antibody, V domains shown, Tested as whole humanized antibody produced in CHO cells and detected with anti-human IgG; the general methods speak of human IgG1/Kappa; also called clone 16-B-07) VH: QVTLRESGPALVKPTQTLTLTCTFSGFSLSTFALGVGWIRQPPGKALEWLAHIWWDEDKYYNPALKSRLTISKDTSKNQVVLTITNMDPVDTATYYCARITTYYYGMDYWGQGTLVTVSS VL: EIVMTQSPDFQSVTPKEKVTITCRASQSIGNHLHWYQQKPDASPKLLIKYASQSISGVPSRFSGSGSGTDFTLTINSLEAEDAATYFCQQSYQWPLTFGQGTKLEIK",no binding (tested: 3 µg/ml)
5,"humanized antibody 16-B-05 (antibody, V domains shown, Tested as whole humanized antibody produced in CHO cells and detected with anti-human IgG; the general methods speak of human IgG1/Kappa; The printed LCVD reads SRESGSG where the printed cDNA encodes SRFSGSG; also called clone 16-B-05) VH: QVTLRESGPALVKPTQTLTLTCTFSGFSLSTFALGVGWIRQPPGKALEWLAHIWWDEDKYYNPALKSRLTISKDTSKNQVVLTITNMDPVDTATYYCARITTYYYGMDYWGQGTLVTVSS VL: EIVMTQSPDFQSVTPKEKVTITCRASQSIGNHLHWYQQKPDASPKLLIKYASQSISGVPSRFSGSGSGTDFTLTINSLEAEDAATYFCQQSYNWPLTFGQGTKLEIK",no binding (tested: 3 µg/ml)
6,"humanized antibody 16-B-03 (antibody, V domains shown, Tested as whole humanized antibody produced in CHO cells and detected with anti-human IgG; the general methods speak of human IgG1/Kappa; also called clone 16-B-03) VH: QVTLRESGPALVKPTQTLTLTCTFSGFSLSTFALGVGWIRQPPGKALEWLAHIWWDDDKYYNPALKSRLTISKDTSKNQVVLTITNMDPVDTATYYCARITTYYYGMDYWGQGTLVTVSS VL: EIVMTQSPDFQSVTPKEKVTITCRASQSIGNHLHWYQQKPDASPKLLIKYASQSISGVPSRFSGSGSGTDFTLTINSLEAEDAATYFCQQSYQWPLTFGQGTKLEIK",no binding (tested: 3 µg/ml)
